The text below walks through data of paper PMC5309861, “Mechanistic insight into the substrate specificity of 1,2-β-oligoglucan phosphorylase from Lachnoclostridium phytofermentans” (Scientific Reports, 2017).

Substrate in the data set: O=P(O)(O)O[C@H]1O[C@H](CO)[C@@H](O)[C@H](O)[C@H]1O
Nature of the data set: phosphate release (molybdate colorimetry), Michaelis-Menten fit. The format is biochemical, Lachnoclostridium phytofermentans. To be noted: synthetic reaction, donor, pH 7.0, 30 °C, acceptor not stated. An excerpt:
phosphate release (molybdate colorimetry), Michaelis-Menten fit on LpSOGP

B1: LpSOGP (Lachnoclostridium phytofermentans ISDg) (protein)
chain: MILKTLSAPIILENSNSTFTFLPGGDNFEWIHESIMINAFQGNTLDGSTNNLYLRIYKDNSLAFYPLIGMNSKSTIKSGTSTLIFEGTAEDISYTVTFRLTPYGIWFWDISLSGNCNKADIIYSQDIGVGTKGSVNSNELYLAQYLGHSIFQGDYGYVICSRQNMAQGDLFPYLQQGSLGIRSIAYSTDGTQFFGLSYKKTNIPEALYGDLPSKNKQYELAHTALQTEAFSLSGTKQFSFYGICKTNHPEVIREIEYIQELEKAYAYHESGEILPVNVPTLQNIGAPYASSRWDAKQVEHYFPKRLLEEKEEEALLSFFTPEKSHVVLQDKELTTERPHGHILMTNFDVTKVPQGVVSSTNYMYGAFNCQFVVGNTTYNKLLSNHRGLLNIQKDSGQRIFIKIGDCYRQLTLPAAYEMNVAGSTWYYQLDEDVLIITSFAMYNRPEIVLKVQSLGHKKYDFIVTHQLTVGPNEYENEIKLTREGNILQLSPTDPVVTNHFYPELSFRMRIPEDCTLSDDSIFFHNNTTINPSLLSIEILQKSSFDIVMQGFDTGNVIPFLDQYDYKEQLEAYRIYYDQLVCNFKLSAPDKIPLSAEKLNAIIHWYAHDALIHFASPHGLEQSGGAAWGTRDVCQGPIEFFLTTGHFDLVRHILITLYSHQIEGGFEWPQWFMFDHYPIHQEDCHGDVVFWPLKAISDYIQATGDTSILNELVDYRTAKDALPTNQPETILIHIKRAVTTIKNRYLSGTALISYAGGDWDDTLQPANSELKENLVSAWTQALAEQTLELLCSAIKGIDHDFSKELSHMANDIRTSFYQYLIKDGVIAGFLYRESEEHMKYMLHPDDTESSIHYRLLPLTRSIIAQLADFKLATRNLEIIDEHLACPDGVRLMDHPASYSGGISKIFLRAEQAANVGREISLQYVHAHIRYIEALATMGLSKKAWDALMRINPILLTDYVPNALTRQSNVYFSSSEGCFDDRYEYAKNFDKLRTGDINVKGGWRLYSSGPGIYIRRIIADLLGIRFGHNVIHIDPVVTKELDGVTLQFTCFGKTVFFTYHVDDTMDKHICVKSNNNILPGDNLNNIYRDGGIQIAKDVFLSAAMSDNNFHIYVKN
notes: full length with C-terminal His6 tag (pET28a, kept); E. coli BL21(DE3); theoretical mass 169640 Da as printed; monomer; structure residues 1-1113
For B1, the Km was found to be 2600 ± 300 µM, the kcat stood at 28 ± 1 s⁻¹ and the kcat/Km amounted to 11000 ± 1000 M⁻¹ s⁻¹.

The Km is the concentration of substrate that gives half-maximal velocity. The term kcat denotes the maximal rate divided by the concentration of active sites. In general, kcat/Km refers to the second-order rate constant that governs catalysis at low substrate concentration.
